Laboratory results reported in the domain aggregation screens of Martell et al. (2025).

Assay: soluble fraction after stress (log2 fold change); higher = more stays soluble; pooled small domains, quantitative proteomics
Details: stress: 75 degC
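Also: 20 min heating vs room temperature control held 20 min.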

| Sequence | soluble fraction (log2) |
| --- | --- |
| HMSLNHDIWVQELKEKRSGYGISQSRLAIAAGMTRQYLSDIETGKVLPSAERKAAITEALERFNPD | -0.348 |
| HMSLNNAHNTIFPRIIELMEMKQLENVLLIGGGIIPRKDIESLESSGVTKLYGPGTPVKETIEFITNWVK | -0.216 |
| HMSLPKVLVPTDITVSQLAKYLEVDAIAIVKKLFGLGVVASLNQRLENEQMQLLGQEFGKDIIFTEN | -1.39 |
| HMSLPTSDWKRALSLFDEALSLPPDARDAWLAHTIAREPAVSPLLQKLLGAHRRVETNDILATLPR | -0.534 |
| HMSLQNTMANFAGGVLVLFLKPFKAGDYIVTKDGEGTVASIGLVYTTLLTIENKRIVIPNSSISNSPITN | 0.159 |
| HMSLRGEKTYDEAHQKLIKSAVELFKNPLVSPEKITVSQIAKHAGVSVATAYNHFPENKLDIYGSIF | -0.203 |
| HMSLRVIEIFGTPQQMSARISLMDGSVTDVKVGQSIPGTSYKVASITGNGVWIQNGTAVSYTHL | -2.41 |
| HMSLSDADVERLLEVAIDIESLEEREGLYYQANESEPYSGWGKLMYDSGQVERLVPYKDGRWEGLWTIW | -1.07 |
| HMSLSISSLVFFRKNAGLTQADIATAMSITQSAVARLEKRLLSDSDVTLKTLERYAEAVGIRMHVDFEP | 0.01 |
| HMSLSKEEFETISKQVLELAGAGPIPVKELLQKMERTSKEKAWKVIEFLQAEDKIVPDATGRIQL | -0.727 |
| HMSLSKQETEFLTTFSASGKRVFTYQQATDYWQSKVAATNVLGRLVRKGWLQRLERGLYMIIPLEAGPERF | -1.71 |
| HMSLSPAATRSRGYPSVLLTMKAPERLVSAAGPDRRAYLVGTDPLVIELPGVKGLYKVDPDQIVFE | -0.0024 |
| HMSLTEEQVDSGLKEIRLALLEADVALPVVKNFITNIKPKAIGQEIIRSTSPGQMIVKIVYDELVSIL | -0.066 |
| HMSLTEESAKSLIGLTENEAVKVAAERGWTVRVAMRDGEAFMLTQDYSENRVNLTVMKTLVTAVTI | -3.32 |
| HMSLTMPKLIGMHLFQAERTLNYYGFQYKVEGPDSASVVIDQYPKEGVTVDPHYPITLKIGPSA | -2.18 |
| HMSLYGGYEIDIIKEEVVDAGIKLLRRRVIVADQRGISVYEGKPTFASDDQVLIKEGQYQIDKLG | -2.46 |
| HMSMHVHTPNPDFKPSNTNALQEGQLVEHPKFGFGKVQKIETEGLNKKASIQFEHFGEKTLLLSFAKLRII | -1.47 |
| HMSMLGTEQRVLVLGPARKGEGFLMARTDNNRIVNFEGPLSLVDTMVRVKVTDVYPHSLGGQLL | -1.51 |
| HMSMPDERMLTSWMMARVKAAGKTMTRDAWNEFFERSNDSMDHMDMEMEKLLSYVYDKDGITLEDVEA | -0.223 |
| HMSMQIILLDKVVNLGGLGDVVKVKDGYARNYLIPQGKAKRANTANLAEFEARRVELERLAAEQLAQAQA | -0.0666 |
| HMSMRIDTNTLNYYVQNAQISLSVLRTKINNLDQFLSGEKQPTFNQLSEIAKKINVPTGLLLLNKS | -2.17 |
| HMSMSKISNLLEIMMIIQYKGLTTASELAQSLGVDKKTVYRYINSLSKANIPIYTKKGRYGGFYIDKNF | -1.29 |
| HMSMSTVGERIKKKRKNLNFTQQELAAKLNISAQAVSKWENGVALPDLGLMPKLAQVLESTVDGLLGYQGA | -0.756 |
| HMSMTLSVLDDVRGLSESRRKQLFHSFGSIKKLREQSKETLMSIPYLPEKVALELYDKLHEE | -0.243 |

| Sequence | soluble fraction (log2) |
| --- | --- |
| HMSMVGSVNKQGRPFALLRVDNLLYQVKVGDYLGQNYGRITQIDETQIALREIVQDAAGEWIERPGVLQL | 0.294 |
| HMSNATELVYDDGRKLLISYETLVGGYHPDLGWIRTAKTYSISTDKHIRNYFNNVTNPRVVGEDILETLKI | 0.109 |
| HMSNDRSYLARLQDYYAEHRALPSYASIGALLGLRSKSSVAALVARLKLAGFVESTPDRRLAPTRRFF | -4.01 |
| HMSNEWIEISAKTVDDAINEGLIRLGTTTDKMDVEVLEKESAGFLGFIGKHDAKIRVRFKEV | -0.0738 |
| HMSNGYVTAKTTVNVRKSASESGERLGVIYQGDKLELVMNQADGWTKVKYKGQTAYVKSEFM | -1.27 |
| HMSNHYETLGVPRDASQEDIKRAYRRLARKLHPDVAGPGKAEEFKAVNEAYAVLSDEESRRMYDLGGDDAL | 0.157 |
| HMSNIQLVENLYRLRKAHHYTQQEISDLLNISRQAYSNYETSKRTPDLDSLMRLADIYGVSLDQLVNHP | -1.93 |
| HMSNLENSLNESLSLLKSNKYNEALEILKKIEIEDSRVFFLLGTIYSVMKNINLGEEFLIKASK | -1.64 |
| HMSNLGLQIVRTLTDAGKGVVFITHKLKEALTIADRINVLRRGKVVGDADPKTASESQIAEMMVGRPVQL | -0.0755 |
| HMSNMWVWSKLSGIQWMDAWEDRFHGNPNTVITRLKTNKTVRVEVYTETEQEALDIKKLFGGSIRKLV | -3.09 |
| HMSNRFIQFRQRAIDWLNSDRDFNAGILLLEESGFKPGVVAKLKRHGVNGPEAKKRLKFLINELVKAWA | -1.2 |
| HMSNVKVYPNPTSGKLTIDAENYKGVEVYDTSGRLIVKSELRTIDLEEQSKGLYLLKVNANGTTQEFKVFK | -0.0433 |
| HMSNYLKSVEVFDPITNKWSYVSAMKVRRGYVAVVATMDRLYAIGGYDGENYLSTVEMYNPDTN | 0.108 |
| HMSPAVSLITGKLGAETYYKQGLKKAKEKDYEGALDDLIKAYEFFPDKKIKTQVDKLASFLGKPPIL | -0.259 |
| HMSPIKAGDLVKITGTKYYRGQTIPSWVKAKNWFVHSVSGDRAVINKSEDGKNAIMSPVKVSNLALVT | 0.0902 |
| HMSPILTPDQATKAYGKDGVLYIHSNKERTIYIYDVTGRTVRILEAVEGENQINGLEKGIYFLEGQKVAV | -1.36 |
| HMSPLQLGNYNTLRITRFTDHGAYLDGGDVGEILMPKTYVLPEMKPGDEVRVFVYLDQEERLVGTTET | -0.622 |
| HMSPPVIQQGQDVRLIYKGTGFAVSNEGKALNTAADGQVARARTGGGQTVSGIARPGGIIEIT | 0.391 |
| HMSPQPPNQEAVRTRILDQAAHLFLTIGYAETTVRRIAGAVGIKAASLYHHFGSKDEVFESILIR | 0.274 |
| HMSPRADRSVNLDVGETVQIDDWGADGTAQIRYRGAPWTAVLRPGHTPHPGPHRVIELVGSRLLVEP | 0.0352 |
| HMSPRAIYVTTSDLNMRMQPSPNAYKRGVAPRGTELLVVEWGDDWSKVIFEGDTAYAASRYLSYVKDEP | -1.74 |
| HMSQDEVVADMKADLGPDADNIIRSNIQWADGLVRKGILTESEREELDVMGGTPEAQRILVKLRTMQG | 0.178 |
| HMSQDTLIENGKVFLIHKVVAGQTLYGLSKAYNITIEDIIKYNPQAENGIKIGEDIKIFLKEE | -0.924 |
| HMSQEHTVPDYKDMEATVVYADLTQKGLNYEIAQETSPTIKEGNVTQTIPGMNEKVVSGDTITVFVSTGTG | 0.431 |

| Sequence | soluble fraction (log2) |
| --- | --- |
| HMSQIDLQIGHKIKSKRRKLGISQADMAKKLYISPSYLNLIESGKRKINVDLLLKLSNELGIEMSDIS | -1.97 |
| HMSQIILSARSGHAALRHRLGELGYTFADKEFDDIYERFLEVADQKKEVYDEDLESIVQERQRD | 0.00498 |
| HMSQITEADYIPNTDKTWGELMEETGESLPNLVERYNNEMTKSNGKEQPQSIIQRIIEDYQMVS | 0.253 |
| HMSQLSDEQELRDIARGIIEGNPNEAEKYRAGRTGLLGFFVGKLMAETEGKANPRLASRILKELLE | -0.144 |
| HMSQLSQIVDAFGGLRPFARALNKPPSTVQYWIEKGGIPASVVSPIMKLSEEKGLGLSRDQVSAAVS | 0.441 |
| HMSQLTVGTVVTGNASLQTQGLKLPSFASGSRPASPNIGQMIWNSSDAKAQIWNGSEWDDVG | -0.0784 |
| HMSQNVSFTVDSGQAGLRLDVFLSQADPAFSRSQIKYAIEEGDVTVNGKEPKVSQHLKDGDIVELHLE | 0.0493 |
| HMSQQEAQLNSLVKIYESMKPKDAARIFDTLDMDVLLDVVMRMKEARSAAVLAEMTPDRAKEVTLQLAD | -0.912 |
| HMSQTDQALRHLIREAWATLPQRQQQAVELAYYEGLPDTEIAARLNQPVEEVKTSIVLGMAHLREALHSY | -0.811 |
| HMSQTDTDAKDARQKILALLSDGEWHQKTELLKIDAPKEAVSNAIRYLVLEELISIDHAKVRA | -0.447 |
| HMSQTVKYVNTTSGLNMRTGPATSYAKITTIAYGQSVNVLSTSNGWSKINYSGSTGYVSSQYLQSKKPS | -2.77 |
| HMSQVHYAVLFKNASAAEATEIVTYARETLGVQDIKINANGDILVPEDKVEEMRVSMSIAGFPK | 0.23 |
| HMSQVSTKYINVSSAYVRSKPSKDGEIVTSLIKNTDVTVTGENGDWYKIKFNNYEGYIFKELLSDSKLEE | -0.442 |
| HMSRAMFEMHADWQPTDSIRGLLGRAGLPTDIAKLDQSRIGDFVNHWFGKPDRNTADSWNGLLVGWLKRTQ | -1.18 |
| HMSREEFLAGLEEALAGEVPASVIRENLNYYNSYISQEMAKGRTVDEIVDEIGEPRIVARTIIDSSEAAGE | 0.319 |
| HMSRELVILGNSMLNNALKAFHVSPASIKKKHWDKLILDYHLESKNNILIDIALGKRINVMVAHQLTSIID | 0.408 |
| HMSREVTVPPLSGLTLRDAARTLAERGLLMEAEGQGAVHRQDPPAGTRVPTGTPVRVFLTLPEQNS | 0.842 |
| HMSRGTLFVDVRGAVAKPGVYELPEKSRVFQAVEAAGGLLPEALERLVNQAAELTDGQQVYIPFEGEE | 0.405 |
| HMSRLLRTDAHLQYAAERGLPVTASAYTPVFAGAKQYTGRIESFDAQTIRFADGPAVERKAVARLEAE | 0.104 |
| HMSRLLTTRQREVFEVATREGFWDVPRRINLSELAKVLGVAKSTLSSQLQRIESAVFHAFTDEIRRQS | -2.09 |
| HMSRMLTVKQREVFDLAMREGYWETPRRITLTMLASLLSVSKSTLSVQLHKIEGTVLSSFSDEVRRRS | -1.87 |
| HMSRQDYLQTIYRLSVGKGYTTNKKIADFLSVSKPSVTEMIGKLQGEGLVAMDGAHIFLTEDGAEQ | -0.595 |
